Here are results for 2 proteins from publication PMC11330527, “Structure and dimerization properties of the plant-specific copper chaperone CCH” (Scientific Reports, 2024).

Data set [1] concerns the molecule itself. Nature of the data set: MST; both copies in the apo (copper-free) state; Alexa Fluor 488-labeled chaperone 20 nM, unlabeled chaperone 4.6 to 400 nM; 300 mM NaCl, 50 mM HEPES, 0.05% Tween-20, pH 7.5, no DTT; room temperature; one-site binding model; apparent KD; dimer to monomers.
Data set [2] concerns the molecule itself. The data set is described as follows: MST; only one copy preloaded with copper (CCH: labeled copy copper-loaded, unlabeled copper-free; CCHΔ: unlabeled copy copper-loaded, labeled copper-free); labeled chaperone 20 nM, unlabeled 0.4 to 6.25 µM; 300 mM NaCl, 50 mM HEPES, 0.05% Tween-20, pH 7.5; room temperature; one-site binding model; apparent KD; dimer to monomers.

B1: CCHΔ, truncation mutant of CCH lacking the C-terminal extension (domain or fragment, Arabidopsis thaliana, UniProt O82089 1-70, looked up)
chain: MAQTVVLKVGMSCQGCVGAVNRVLGKMEGVESFDIDIKEQKVTVKGNVEPEAVFQTVSKTGKKTSYWPVE
modifications: also: Alexa Fluor 488 NHS ester on amines (labeled copy only)
notes: Used copper-free (apo) or preloaded with Cu(I) from Cu(I)-(BCA)2; A TEV site follows the His-tag; source: E. coli, purified (IMAC, TEV digestion, SEC); not shown: 10xHis, N-terminal, cleaved
B1: the Kd in data set [1] came out at 57 ± 9 nM; in data set [2], 169 ± 51 nM.

B2: copper chaperone CCH (full-length CCH) from Arabidopsis (natural protein, Arabidopsis thaliana, UniProt O82089 1-120, looked up)
chain: MAQTVVLKVGMSCQGCVGAVNRVLGKMEGVESFDIDIKEQKVTVKGNVEPEAVFQTVSKTGKKTSYWPVEAEAEPKAEADPKVETVTETKTEAETKTEAKVDAKADVEPKAAEAETKPSQ
modifications: Alexa Fluor 488 NHS ester on amines (only the labeled copy in MST)
notes: Used copper-free (apo) or preloaded with Cu(I) from Cu(I)-(BCA)2; A TEV site follows the His-tag; Vector pETEV16b-CCH; also called apo-CCH; Cu(I)-CCH; source: E. coli, purified (IMAC, TEV digestion, SEC); not shown: 10xHis, N-terminal, cleaved
With B2, the Kd came to 18 ± 6 nM in data set [1] and 78 ± 39 nM in data set [2].
